Measured values as given in the RNAGym collection of RNA variant scans (doi:10.1073/pnas.2313332121).
Variants at the floor of the assay were thinned out.

B1: TPR 5TU (parent)
chain: GGAUCUUCUCGAUCUAACAAAAAAGACAAAUCUGCCACAAAGCUUGAGAGCAUCUUCGGAUGCAGAGGCGGCAGCCUUCGGUGGCGCGAUAGCGCCAACGUUCUCAACUAUGACACGCAAAACGCGUGCUCCGUUGAAUGGAGUUUAUCAUG

Variants of: B1
Experiment: polymerase ribozyme fitness, log enrichment relative to wild type (log ratio); higher = more active; in vitro selection for triplet polymerase activity
Method in brief: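 Only genotypes with ≥10 input reads and ≥1 read per output were kept after Illumina sequencing of input and output libraries. These libraries were PCR-built, transcribed mutants of each subunit of a heterodimeric triplet polymerase ribozyme, each put through one triplicate in vitro selection round with frozen incubation at −7 °C, gel excision of extended constructs, streptavidin-bead capture and RT-PCR. Fitness is a logarithmic ratio of genotype enrichment to wild-type enrichment, from inverse-variance-weighted replicate averages, with the logarithm in base 2.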

Row | Variant | polymerase ribozyme fitness (log ratio)
1 | A22U G46A | 0.387
2 | A22U A52U U78A C85U U127A A137C | ≤ -4.2
3 | A22U U56A | -0.239
4 | A24G U44A A49C U82G A122U G140C C149U | -4.02
5 | A23G G83A G94A C125U A147C | ≤ -4.2
6 | A24G C38G A40U A110C | ≤ -4.2
7 | A24G G25A G84A C125G G152A | ≤ -4.2
8 | A24G G141C G143C | ≤ -4.2
9 | A24U A49U C51U G70A C85U G112U C114A A122U U146C | ≤ -4.2
10 | G25C G94A | -3.16
11 | G25U C36U G67C C85G C87U A89U | ≤ -4.2
12 | A23C A30U G50A C54A C93G C95U G124A | ≤ -4.2
13 | A24C C32U A39U U90A C95G A138U U144A | ≤ -4.2
14 | A24U G92U | 0.213
15 | A23C A60G C96A C118U | ≤ -4.2
16 | A24U G42C G50U C85G G136A G141A | ≤ -4.2
17 | A22U A52C G58C G84U C99A | ≤ -4.2
18 | A23G A52U | -3.51
19 | A24G C35U A89U G92C C125A | ≤ -4.2
20 | A23G U144G | -1.79
21 | A22G U53C C54U U78C G117A | -1.92

Row | Variant | polymerase ribozyme fitness (log ratio)
22 | A22G U44A C85A | ≤ -4.2
23 | G25C C75U A91G C99A G124U U134A | ≤ -4.2
24 | A24C G46A C116G | -4.14
25 | A22U C32U U55G U56C C75A G88U C105U A142U | ≤ -4.2
26 | A22U A150C | -2.85
27 | A22U A89U | 0.229
28 | A24U C57U C69G G84A C87A A115C | ≤ -4.2
29 | A24U A60U G84U | -2.22
30 | A23C C27U A29G C87U A110G | ≤ -4.2
31 | A23C C35A C36G C54A A137G U148G | ≤ -4.2
32 | A22U C27U G86U | -3.28
33 | A22U C35A U55A U56G G74A C85G | ≤ -4.2
34 | A24U G46C A60C U102G | ≤ -4.2
35 | A22U A29C A47G U134C U139A | ≤ -4.2
36 | A22U G25C G48C A122U | ≤ -4.2
37 | A22U G50U C96A G136C A142G | ≤ -4.2
38 | A24G G92U A122G | ≤ -4.2
39 | A23U A49C U61G C87A | ≤ -4.2
40 | G25A C76U C87A A110G A120G | ≤ -4.2
41 | A24U C96U C129G | -3.47
42 | A24U A28C A52G G71A C96G A137C | ≤ -4.2

Row | Variant | polymerase ribozyme fitness (log ratio)
43 | A24G C32A C38A U45A C57U A106U C118U | ≤ -4.2
44 | A24U G50U G59A | 0.438
45 | A23U A24C A30G A39G C116U | ≤ -4.2
46 | A23U C93A U135C | ≤ -4.2
47 | A23U A60G G81A G83U | ≤ -4.2
48 | A23C U44C U55G C57A C93U U145A | ≤ -4.2
49 | A22U C96U A121U U139A | -4.03
50 | A24C G58A | ≤ -4.2
51 | G25A C51U G92U A119U G124U | -3.78
52 | A24U C99U | -1.46
53 | A23C U44G A47U A91U A122U | ≤ -4.2
54 | A24U G50U U56G G58U C76U A122G | -4.1
55 | A23C C43U A47C C57G C87A A121G G143C U144G | ≤ -4.2
56 | A23U U53G | ≤ -4.2
57 | G25U A41G C93G A113U A150U | ≤ -4.2
58 | G25C A60U C93A C95G A137G | ≤ -4.2
59 | A24U A49C C54U C75G C85A A122U U144C A147C | ≤ -4.2
60 | A23U C87G A91G | ≤ -4.2
61 | A24U U33G U56A A91G C103A | ≤ -4.2
62 | A24C A28G U53A U134A | ≤ -4.2
63 | A23C A60U G84U C105A | ≤ -4.2

Row | Variant | polymerase ribozyme fitness (log ratio)
64 | A23G A49U A60G A119U A120U A122C | -3.98
65 | A23G C54G U56A A142C | ≤ -4.2
66 | G25A C54A G84U C114U A115G A121C U145G A150U | ≤ -4.2
67 | A24U G84A G94U C96A A121U G126U U135A | -4.1
68 | A23C C51U G58A C75U C85G G143A U145G | ≤ -4.2
69 | A24U C32G U55G U78A U104G | ≤ -4.2
70 | A23C G133A U135C G141A A150C | ≤ -4.2
71 | A24U C35U C75U | -2.19
72 | A24C G81U C87G U104G A110U | ≤ -4.2
73 | A22U A39U U44G C51A G141C U146C A150G | ≤ -4.2
74 | A24U G48U G83A | -1.25
75 | A23C U144C | -4.15
76 | A24G G62U C85U U146A | ≤ -4.2
77 | A24U A37U C51A C87U A98U G100U | ≤ -4.2
78 | A22U A41C A52U G124U | -2.3
79 | A22U G80A | 0.375
80 | A22G U53C U82G A98U | 0.397
81 | A22U A26U | -2.88
82 | A22U G46U C69A C93A C131A U148A | ≤ -4.2
83 | A22U C63U | 0.542
84 | A24G C108U U148G | ≤ -4.2
